Data published in US20190269761A1.

Assays:
[1] = target: mSWI/SNF (BAF) complexes, endogenous; experiment: urea denaturation and IP, as restated in the discussion; complexes of synovial sarcoma cells
[2] = target: mSWI/SNF (BAF) complexes, endogenous; experiment: quantitative densitometry of anti-SS18 immunoblot of glycerol gradient, Aska-SS cells bearing SS18-SSX1
[3] = target: mSWI/SNF (BAF) complexes, endogenous; experiment: urea denaturation and IP, as restated in the discussion
[4] = target: mSWI/SNF (BAF) complexes, endogenous; experiment: urea denaturation of 293T nuclear extract followed by anti-Brg IP and immunoblot

urea concentration required to remove [1] [M]	percentage of BAF complexes that contain wild-type SS18 [2] [%]	urea concentration required to remove [3] [M]	urea concentration required to dissociate [4] [M]	Substance
8	–	–	–	SS18-SSX1 fusion protein (from UniProt Q15532 1-379)
–	2 to 8	8	5	SS18 (wild-type, endogenous human) (from UniProt Q15532 2-418)
